Marks after values point to notes of the source that are not given here.
How the values were obtained:
Meth A cells = test: Antineoplastic activity of the complexes of Examples 1, 5 and 6 (Example 10); assay type: in vivo, BALB/c mice; conditions: for IR, diminution rate of the tumor: 21th day; for Average tumor weight: tumor weighed on the 21th day
Experimental: Meth A cells were transplanted into BALB/c mice to prepare Meth A tumor-bearing mice. On the 7th day after the transplantation, the drug complexes shown in Examples 1, 5 and 6 were singly administered, respectively. The weight of the tumor was measured on the 21th day to evaluate the inhibitory activity on the tumor and the toxicity. In the table, * represents significance in Dunnet's test (*** p<0.001, ** P<0.01, * P<0.05), the dose is expressed in terms of the weight of anhydrous free base of DX-8951, and IR represents the diminution rate of the tumor.

[1] = Release of the drug compound from the drug complex in Meth A homogenate (Example 8); assay type: in vitro ADME, murine; conditions: for released amount of the drug (DX-8951), percentage of the drug in the drug complex used: 37° C., 50 μg/ml, after 20 hours
Experimental: (§1) (50 μg/ml). […] The released amount of the drug is expressed in percentage of the released amount of the drug to the amount of the drug in the drug complex used.

[2] = Release of the drug compound from the drug complex in buffer (Example 8); assay type: physicochemical; conditions: for released amount of the drug (DX-8951), percentage of the drug in the drug complex used: 37° C., 50 μg/ml, after 20 hours
Experimental: as §1

[3] = test system: Meth A tumor-bearing mice; test: Maximum tolerated dose of the drug complexes of Examples 5, 6 and 7 (Example 9); assay type: in vivo, BALB/c mice; conditions: for BWLmax, maximum body-weight reduction rate / N, mice died/mice used / day when the maximum body-weight reduction was observed: single administration on the 13th day
Experimental: Meth A cells were transplanted into BALB/c mice to prepare Meth A tumor-bearing mice. On the 13th day, the drug complexes obtained in Examples 5, 6 and 7 were singly administered. After the administration, measurement of the body weight and observation of toxic death were made with time, and the maximum body-weight reduction rate and mortality were calculated, which are shown in Table 5. The dose is expressed in terms of the weight of anhydrous free base of DX-8951.
On the basis of the dose in which body weight reduction and death were observed, MTD of each complex were judged as follows.

[4] = Release of the drug compound from the drug complex in plasma (Example 8); assay type: in vitro ADME; conditions: 37° C., 50 μg/ml, after 20 hours
Experimental: as §1

[5] = 0.15625 mg/kg, singly administered on the 7th day
[6] = 0.3125 mg/kg, singly administered on the 7th day
[7] = 0.625 mg/kg, singly administered on the 7th day
[8] = 1.25 mg/kg, singly administered on the 7th day
[9] = 1.875 mg/kg, singly administered on the 7th day

Substance: Carboxymethyldextran polyalcohol-Gly-Gly-Phe-Gly-NH-p-C 6H4—CH2—O—CO-DX-8951 [Example 5]
- BWLmax, maximum body-weight reduction rate (Meth A cells; [5]): <0%
- N, mice died/mice used (Meth A cells; [5]): 0/6
- IR, diminution rate of the tumor (Meth A cells; [5]): 9%
- Average tumor weight (Meth A cells; [5]): 2.394 ± 0.231 g
- BWLmax, maximum body-weight reduction rate (Meth A cells; [6]): <0%
- N, mice died/mice used (Meth A cells; [6]): 0/6
- IR, diminution rate of the tumor (Meth A cells; [6]): 57%
- Average tumor weight (Meth A cells; [6]): 1.128 ± 0.173*** g
- BWLmax, maximum body-weight reduction rate (Meth A cells; [7]): <0%
- N, mice died/mice used (Meth A cells; [7]): 0/6
- IR, diminution rate of the tumor (Meth A cells; [7]): 88%
- Average tumor weight (Meth A cells; [7]): 0.328 ± 0.164*** g
- BWLmax, maximum body-weight reduction rate (Meth A cells; [8]): <0%
- N, mice died/mice used (Meth A cells; [8]): 0/6
- IR, diminution rate of the tumor (Meth A cells; [8]): 100%
- Average tumor weight (Meth A cells; [8]): 0.010 ± 0.004*** g
- BWLmax, maximum body-weight reduction rate (Meth A cells; [9]): 12.3%
- N, mice died/mice used (Meth A cells; [9]): 0/6
- day when the maximum body-weight reduction was observed (Meth A cells; [9]): 13 days
- IR, diminution rate of the tumor (Meth A cells; [9]): 100%
- Average tumor weight (Meth A cells; [9]): 0.011 ± 0.003*** g
- minimal effective dose relative to that of the drug complex shown in Example 1 (Meth A cells; Meth A tumor-bearing mice): about ⅓
- released amount of the drug (DX-8951), percentage of the drug in the drug complex used ([1]; Meth A homogenate (pH 4.5)): 110.69%
- released amount of the drug (DX-8951), percentage of the drug in the drug complex used ([1]; Meth A homogenate (pH 5.5)): 110.31%
- released amount of the drug (DX-8951), percentage of the drug in the drug complex used ([1]; Meth A homogenate (pH 6.5)): 42.71%
- release of the drug in words ([1]; weakly acidic homogenate): rapidly released
- released amount of the drug (DX-8951), percentage of the drug in the drug complex used ([2]; Buffer (pH 4.5)): 0.79%
- released amount of the drug (DX-8951), percentage of the drug in the drug complex used ([2]; Buffer (pH 5.5)): 0.71%
- released amount of the drug (DX-8951), percentage of the drug in the drug complex used ([2]; Buffer (pH 6.5)): 0.8%
- release of the drug in words ([2]; buffer): hardly released
- BWLmax, maximum body-weight reduction rate ([3]; 0.625 mg/kg): 2.0%
- N, mice died/mice used ([3]; 0.625 mg/kg): 0/3
- day when the maximum body-weight reduction was observed ([3]; 0.625 mg/kg): 14 days
- BWLmax, maximum body-weight reduction rate ([3]; 1.25 mg/kg): 5.0%
- N, mice died/mice used ([3]; 1.25 mg/kg): 0/3
- day when the maximum body-weight reduction was observed ([3]; 1.25 mg/kg): 18 days
- BWLmax, maximum body-weight reduction rate ([3]; 5 mg/kg): 28.6%
- N, mice died/mice used ([3]; 5 mg/kg): 3/3
- day when the maximum body-weight reduction was observed ([3]; 5 mg/kg): 18 days
- BWLmax, maximum body-weight reduction rate ([3]; 10 mg/kg): 27.1%
- N, mice died/mice used ([3]; 10 mg/kg): 3/3
- day when the maximum body-weight reduction was observed ([3]; 10 mg/kg): 18 days
- MTD relative to MTD of the drug complex obtained in Example 1 ([3]; Meth A tumor-bearing mice): about ⅓
- N, mice died/mice used ([3]; […]): 3/3
- released amount of the drug (DX-8951), percentage of the drug in the drug complex used [4]: 0.13%
